{
  "source": "the DeepSol protein solubility set",
  "data": [
    {"assay": "soluble on expression in E. coli; label from the status in PepcDB or PDB records", "values": [
      {"sequence": "MDYRVLLYYKYTTIDDPELFATEHLAFCKDLELKGRILVSTEGINGTVSGTVEATDKYMEALKNDARFQGITFKVDEAEGHAFKKMHVRPRQEIVALDLEDDVNPRELTGNYLSPKEFREALLSDDTVVIDARNDYEYDLGHFRGAVRPDITRFRDLPDWIKENKEQFMDKKIVTYCTGGIRCEKFSGYLLKEGFEDVSQLEGGIATYGKDPETKGEFWDGKMYVFDERISVEVNHVDKTVVGKEWFDGTPCERYINCSNPECNKQILVSEENEARYLGACSHECAKHENNRYVKKHNISDEEKAKRLENFKELVKLEHHHHHH", "soluble on expression in E. coli": "not soluble"},
      {"sequence": "MEAAANRQLIVSFTPYEWKYVRQLFRSRRIEDVKECVIILATWISRTGENTPVAISCSHVLLQAIYAELLSTGMCESERYMAIDDLRSKHGYAIVRFVNYVNEMGQTGATLKNMVHAVKSFGIPKKIVDIRHAITHQNCPDIAELRYATNFCLDWLWKNFWLSDARVAMNSAAATNSSKNPTSSSEFGGQRGREQQYVSSLRAFNTWRVKNRQLTTELEWSEVAELLALKHHILLDSTGFLTCFMRDGHLIQTPGQWKNWKLPVTCSNDNWQIPEEIQAFWEPLFHVMFSLKLGAEIVVAFLWRLREPMIKDMTRHQITAYVRMIVQQFADADVFSDEEWYKVLDHLLPVAKNFSTEFIELVMARCTTLAHKRKKQIRQILNISTKSHVESPSTSSSDTVHTVSDLQKLLKKSSKSVVKSEPVTSNADGNRTGIELCDVAAWAEVPFGMAPGQRIETFTVVLDHHGSDKSRKRRAFDAAITLDED", "soluble on expression in E. coli": "not soluble"},
      {"sequence": "MEAASIAVPGAGASLRAQALDALMTPAWADKLAAVAAIDAGAPVGAQQDLAEPAGLPGRPPAPQLVPPSQVRQRSVQSPEGRAALLHALAHIEFNAINLALDAVWRYGGLPDAYYLDWLKVAREEAYHFDLLNRHLSGLGHAYGDFPAHNGLWEMAEKTRADLLARLALVPRTLEARGLDASPLIRDKLAAAGDADGAAILEIILRDEIGHVAIGNHWYKALCAQRGLDPVAQYAQLASRYGAPRLRGPFNLEARRAAGFDEDELRALLQAKLAAALEHHHHHH", "soluble on expression in E. coli": "soluble"},
      {"sequence": "MEAEPLETEQDEWRKERMRVLDEWCEIELKGADALKMDVTREPGSPTVAVAPETSLQDLYPLLIATSSSNAPPSATPTDDVTDPEVQVVSRESIDNRSTFNRIIDVCLCRPVKSQMGPKAYTDKTLILKLAQIPYDHENGTHWLLLSDYFNNVSRSLMTSSEYSHVTNPSRVGAHWVTVGFQSATPHTDFRGCGVLGLLQMHTFTQRVPANLLRAIVLLATTEPNDFPLAVVSINITSILLTQLKKGALDNFGNEIEGLYPFFSALHASAMCRFCSIYKSQKCTLANTQTIFSEITRQLEKSPLSLIMLLNPTNDELINTLL", "soluble on expression in E. coli": "not soluble"},
      {"sequence": "MEDFNRRAEELDQVEKNVSLGLKKIQDEMDSIQLEVEPDDVEITSTKRGFWEHDITNLSPFPVVCRVRATSPSMFVVNKNVFLLKPMDFFKLMISRKPGQIRSHHLKIDVTQFVDTFNPINLLDYFIASNPFKTFVVRYHGAPRYWSDALEMNSWLTGEQLNEQWEKEMKKTSQEKKSSLETSEVSSVNEFVDAEEDNFPVQRAAMNITNVLTVASQVPDESNKNEPDSDIDSVVSGTIDSELANLKI", "soluble on expression in E. coli": "not soluble"},
      {"sequence": "MEDHKPRPCQPRPWLKEQKCPTGFWCHEGQSEHSFYCCPSSRKFANRCHLPPAVGYGKQRMRRFYFDWKTDACHELQYSGIGGNENIFMDYEQCERVCRGAGEPPILLPSNMKVLPKETTKDFKKMEKPEMEKKMVYPKEVAAPVSLQPPSLRTTKPADVHESFYTVSPQTSSVPHPTTLSTTHSKQKPTTTEAEIPEVFDPNPCSLSPDKGFPGSVTVNMWYYDPTSTTCSPFMYLGKGGNSNRFETSEECLETCGIGKPTRKSCELPPAIGNGPFNIPRYYFDRVTKKCERFFYSGRDGNDNRFYKKNKCERLCLRKKPKKKENIYEFTTTPSTPSVIYESTPLRIIQNLVPNYVTPTPTQSRITVEPWIERFTEKSSIYEYSTTPHPTLIYEPHGETLPTLNPPTTTTPSIVDHVFSSLMNTQQQKLVEFVHVPTDQKTTGETPRKFSSHETIPFGQVEQQPIPMNPFGSAKPTVNKFGMKVEPYQTTDYMLPPGYPSSSIYLPQPAYPEVKPNSSVILSSTQSQNNTSPQTIPASASVTNSATSTVVDTSSQFQIPYVSSPASATSNIFVGPIPPPSNSGSSSQAPDSSQSATNSSNSGSGESKIPNVGPIAPPSQLSQVGVFVTGSTSTSPVVSINFIKTENSVQQPTHYIVPSQSSPPPDPYVISNPIPTLSPTAGTPSFNIYPYPSLPPPTTTISPLPTLLPPNISYVTSPPDNNDSPCSRSIYGDATIMCENRQEICPMGTFCQIGQGQSICCPIMDEPPCEQAIEEGVGNVLLRRWYFDPATRLCQPFYYKGFKGNQNNFQSFDSCSRACGATNVCSGGSPQMSVHTHLLSCNFESDCPYSHDCIQSTPHNLCCPKTSHLVPESIPAPPFEPVQMPIPAPPAQVSQPQEQSSNMVIDFVPATHASNNLCGQPIDVGFGVLSEHRWAYSAGQCTSFLYSGHGGNMNNFLTRNDCMKTCQSPMPPPSSQCSQPAASGQGDQYLSRYFFSPEYRQCLHFIYSGEGGNQNNFDSLTDCLETCVANGIKFSSLANSPMSAVPPPPPTLMPSPPVTSSPFTFVPRNMCPQGDPLITVDGTPIQCDPSKAAKCPGDHVCTPRGNEAYCCPSPMNFCLQSRPPISVCSGPDFEPVREIRFTYDPLADRCVRFSFQNCRGAAFSPTGSLNNFVSNSQCNRLCCNQGYNLVYKRRLLMAMNDDPIVEDD", "soluble on expression in E. coli": "not soluble"},
      {"sequence": "MEDHSSSIAVHKLDGDLLLRTAEIGDADMIAAYFQSNRDYLKPFEPKREEAFFSVNGWLQKLIKLNELHRMGLGYYCLLIHVDT", "soluble on expression in E. coli": "not soluble"},
      {"sequence": "MEDLEHGVASNGLRYGFYRVESESAAICIAARGGSSFEPPGKYGIAHLTEHMIFRGNEYLQDGELDRAVELSGGEANAYTTRELILLCAEFVSDSLARVAEKLFLAVSARRLVEGEFERERAVVEAEVKGLISSPESRIYRLAHASAWGDSHLGRPIEGYPETVANISKADVEEYKASVFSPERMSLAIVGRISRLEALRVVKLFSQLEPGGKVREPETPEPRTTFLREERGIEAAYAALTLPLPPRSGLANVLARLRGVVFNLEAGATSILFKEVREERGLAYGFNVDVHITSWGSSMSLIVLEGNRDRVGELFDAMTRSLERALRGGYPESEWREGRRRLYRFYTRREAISNMERADALSAVILFHEKPFTLEDLVNQTLSSEWSLEEFLRLPRGLALIV", "soluble on expression in E. coli": "not soluble"},
      {"sequence": "MEDMYDSFAALSASESEYRIIYEEKNGSELIVLGPHGGRIEPGVSELVRAFSDRCSIYLFEGLKQRNNRSLHLTSIRFDEPLALEKVNDHHYALAFHGYYDPKIPHTLVGGADRKKAKLICERLNEAGFSAELTNEKDRLAGVHPNNIVNRTKREMGLQLEVSTAQRNALFRNFGCRDKSYIQNDLFDRYVEAVKLGFYTLEHHHHHH", "soluble on expression in E. coli": "soluble"},
      {"sequence": "MEDPLGRLEWIKFLSAFYDKEDKAENYFNQQVSKVMATENKVSSLKKPKVAFGMVDNGKVYIPAKNSYAAKMVDMAGGDYIFKDLNNKSGYITLEDFYSKSKDADVLIYSSSKEYTPSLKSMLSAAPILKTIKPVKNKKVWCFGKDYYQAIDKTDEIIEDLASIFHPESFKGYKIKHYSHLEHHHHHH", "soluble on expression in E. coli": "soluble"},
      {"sequence": "MEDRFTTRRRANLESIAQRLLEISQKTEEDEANEVGEDDQHPKNVLNILNTITKEGLEKIVNDIIANGTIIDEMFVVLQRFSEKPALSNPIQRPFYSNLDDNVPSFLRNLQKWRLRDELTKSIEQEEKLKAELKHANDQINMIVEHNKLELDALNKINLEAKAQEKIQEEIIQRCMKRVEDLESILETKEQKLNDFEEREYETTCQLTMKHSLELAEKDQKILELEKYIRNNENQDVVALTRELERLRSQATKDEPSTDDSTIKISMAQHRLELEAQAKMIKTLEAELSKRQEINAEQIERLIEERNSEIKNLIREQSKEIHEKNVKIAKFEIKDYANIFRQISKNIFTNKEAPGPSGRPKKRRMVDDPEDLFHNYEDLDDAKFLELAKIIETTKKDVTTLINTEGPSEDVSGNFMEAKKIHGALAQLKEKDQTVSDLKQKTNQNNKRVDQEDPIEEYEYDYNDESDGESVKSETSSWDQIDDIF", "soluble on expression in E. coli": "not soluble"},
      {"sequence": "MEEELASYKLQLQQVEAALLGDPTNVELLKLKEDLGEIISLQEDLAETDKAESSERAVVAPQVIHKWTVGERVIAPHPDGKKVFARIDSLTPAGVAITFTSTGTKTIVDPADLQLPPENQRKNYAFDNTKSAAGPSTQHGKKEWQAEKERRRQKALKKQQKQKELDSIKDGEKKSWQKFNTKANAKGLKGLKKVSATGSSQDGSASSSGGGGEKRGTIVSSRSSQFIFKATRGAMDSLF", "soluble on expression in E. coli": "not soluble"},
      {"sequence": "MEELGYVTDAEINAKLAELKGKVPSVVINELREKLMAKKDSLTPRQLDEIVKRVLEAYGSQAAKYEQISKRVDELGKKLSDLSSQLARLVEALEEKKFAVHEKKAEAVAEKAAEVSEKIEKIEEMLEEKPRKSEIEKKLEELHRKIEELSERVAKEKVEETKARIEELEEKIAKGEEIKPEEIKEIEEEVEELGEFEEAPVEEIVVEEEKPPEPVEEVPVVEEKKEEVIEEVPVEEVVEEEKVPSHVVEEEKVEEEGGREMAEKMKIPEDIASLLFEEEPRKARLEEIPDDVVSIMIALKWLGFLIDRVGIQNLEKVLEFYYDIGWISEKVFNQLLRFAKGTRPHHRDPEWKPAEKLTVQDHLISLLFIERLRGLRITRDVLDKLEREIKMLEKTLDEFYGV", "soluble on expression in E. coli": "not soluble"},
      {"sequence": "MEELRFNSVFDIIGPVMIGPSSSHTAGAARIGKVVRSIFGQQPDSVDIYLYESFAKTYRGHGTDIALVGGLLGMEPDDEQLSNSLEIAYEQGMEVCFIPKSEKADHPNSVKIVVSSGDRKLSVTGISIGGGNIQISELNGFKLSLSMGTPTFIVVHQDVPGMIAKVTNILSASDINISTMTVTRESKGEKAIMIIEVDQAEVGDIVMQLAEIPHIYSVNYFD", "soluble on expression in E. coli": "not soluble"},
      {"sequence": "MEEQREALRKIIKTLAVKNEEIQSFIYSLKQMLLNVEANSAKVQEDLEAEFQSLFSLLEELKEGMLMKIKQDRASRTYELQNQLAACTRALESSEELLETANQTLQAMDSEDFPQAAKQIKDGVTMAPAFRLSLKAKVSDNMSHLMVDFAQERQMLQALKFLPVPSAPVIDLAESLVADNCVTLVWRMPDEDSKIDHYVLEYRRTNFEGPPRLKEDQPWMVIEGIRQTEYTLTGLKFDMKYMNFRVKACNKAVAGEFSEPVTLETPAFMFRLDASTSHQNLRVDDLSVEWDAMGGKVQDIKAREKDGKGRTASPINSPARGTPSPKRMPSGRGGRDRFTAESYTVLGDTLIDGGEHYWEVRYEPDSKAFGVGVAYRSLGRFEQLGKTAASWCLHVNNWLQVSFTAKHANKVKVLDAPVPDCLGVHCDFHQGLLSFYNARTKQVLHTFKTRFTQPLLPAFTVWCGSFQVTTGLQVPSAVRCLQKRGSATSSSNTSLT", "soluble on expression in E. coli": "soluble"},
      {"sequence": "MEESDVLISLIEILKIHQKVIDYDKFKDPEDYTPAIRSLATLELMFEYLIKESNTIFENAAVIVYTIVAKHPFFNGNKRTGYEAMNFIIEDGGYGFTSTDEEMIEFIIRVATTENEMSIEEIKEWIIRHTEKILLEHHHHHH", "soluble on expression in E. coli": "soluble"},
      {"sequence": "MEFDKGQTLGNFIDRIRLNGYNTECVFNQSICQDIKNHYKQQCCAMCGVRGNSENTQIEVDHKDGRKDDSRVSDLSTQAFDDFQALCKACNDKKRQICKKCKETGYRFDARKIPGNHYSFYEGEAEYDGCVGCYQYDPIQYRKTCNDRIYNEGYQKGYSDGYQIGYHQKTTL", "soluble on expression in E. coli": "not soluble"},
      {"sequence": "MEFSMNATVEQLAPVEQQATTDWVVAALYQFKEVADAADLQQRLLDLVKTINLCGTLIVASEGINGTVAGDRHAIDTIREFLLNEGFHAMEYKESHSAEKPFRKMKIKLKQEIVTLGVEVKPRDLVGHYLDPKEWNELISRDDVILVDTRNDYEYKAGTFKGAIDPKTETFREFPDYVKQNLEQHKDKKIAMFCTGGIRCEKSTSLLLQEGFNEVYHLKGGILKYLEETPAEESLWEGECFVFDGRTAVTHGVEEGQNVKCHACGWPLTPEEVALPSYEHGVSCVYCIEKTTEKQKEGFRMRQSQIAAAKRKRLLEHHHHHH", "soluble on expression in E. coli": "soluble"}
    ]}
  ]
}
